Results on two molecules are retold here after paper PMC5979025.

The target in experiment [1] is C-reactive protein (pCRP) (Homo sapiens) (UniProt P02741). Particulars: cited from earlier work.
The target of experiment [2] is T1, C-reactive protein (pentameric, biotin-labeled) (Homo sapiens), P02741.
T1 chain: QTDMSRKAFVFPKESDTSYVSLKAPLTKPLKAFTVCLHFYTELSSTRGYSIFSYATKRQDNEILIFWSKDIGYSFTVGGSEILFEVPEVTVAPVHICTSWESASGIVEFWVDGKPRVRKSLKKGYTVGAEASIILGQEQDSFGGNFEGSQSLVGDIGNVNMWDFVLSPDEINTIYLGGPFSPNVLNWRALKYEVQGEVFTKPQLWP
The experiment in a line: ELISA. Particulars: pCRP immobilized on hydrophobic surface, biotin-labeled solution pCRP, calcium required; remark: other sources report otherwise.

What is called Kd is the constant that tells how readily two partners part at equilibrium. “C-reactive protein (pCRP) (from UniProt P02741)”: in experiment [1], the dissociation constant (Kd) was 20 µM.

B1: C-reactive protein (surface-immobilized intermediate, CRPi), P02741 (protein)
chain: T1 chain
As for B1, in experiment [2], the Kd was 1.5 nM.
